Results from the supplement of paper PMC7125110.
± gives the standard error. Variants at the floor of the assay were thinned out.

B1: glmS ribozyme (parent)
chain: AUAAAAGCGCCAGAACUACAGAAAUGUAGUUGACGAGGAGGAGGUUUAUCGAAUUUUCGGCGGAUGCCUCCAAA

Key:
Settings in all cases: with glucosamine-6-phosphate
glucosamine-6-phosphate [1] = variants of: B1; test: self-cleavage kobs at 40 uM GlcN6P; higher = faster cleavage; RNA array
Outline: (§1)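 In situ transcription by E. coli RNA polymerase produced barcoded ribozyme variants on sequenced MiSeq chips, and a hybridised Cy3 probe tracked them at 37 °C. Glucosamine-6-phosphate was flowed in at 40 μM to 10 mM in HEPES/KCl/Mg(OAc)2 buffer. kcat and KM were taken from weighted Michaelis–Menten fits of kobs values from exponential decay fits.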

glucosamine-6-phosphate [2] = variants of: B1; test: self-cleavage kobs at 2500 uM GlcN6P; higher = faster cleavage; RNA array
Outline: as §1

glucosamine-6-phosphate [3] = variants of: B1; test: self-cleavage kobs at 160 uM GlcN6P; higher = faster cleavage; RNA array
Outline: as §1

glucosamine-6-phosphate [4] = variants of: B1; test: self-cleavage kobs at 640 uM GlcN6P; higher = faster cleavage; RNA array
Outline: as §1

glucosamine-6-phosphate [5] = variants of: B1; test: self-cleavage kobs at 10000 uM GlcN6P; higher = faster cleavage; RNA array
Outline: as §1

Row | Variant | self-cleavage kobs at 40 uM GlcN6P (glucosamine-6-phosphate [1]) [s⁻¹] | self-cleavage kobs at 2500 uM GlcN6P (glucosamine-6-phosphate [2]) [s⁻¹] | self-cleavage kobs at 160 uM GlcN6P (glucosamine-6-phosphate [3]) [s⁻¹] | self-cleavage kobs at 640 uM GlcN6P (glucosamine-6-phosphate [4]) [s⁻¹] | self-cleavage kobs at 10000 uM GlcN6P (glucosamine-6-phosphate [5]) [s⁻¹]
1 | A39C A42U C67G | < 1e-05 | < 1e-05 | – | – | –
2 | A36C G37C G41C C50A A52C C71U | < 1e-05 | – | – | – | –
3 | G37A G63C | < 1e-05 | < 1e-05 | < 1e-05 | < 1e-05 | < 1e-05
4 | G35U G66U | < 1e-05 | < 1e-05 | < 1e-05 | < 1e-05 | < 1e-05
5 | G37C A42C C71G | < 1e-05 | < 1e-05 | < 1e-05 | < 1e-05 | < 1e-05
6 | G35C G59A | < 1e-05 | < 1e-05 | < 1e-05 | < 1e-05 | –
7 | A36C U49A G62C C70U | < 1e-05 | – | – | – | < 1e-05
8 | G35A C67A | < 1e-05 | < 1e-05 | < 1e-05 | < 1e-05 | –
9 | A39C A48C U55C C58U | < 1e-05 | < 1e-05 | – | < 1e-05 | –
10 | A39C G43C U47C U49C A64U U65A | < 1e-05 | – | – | – | –
11 | A36U A52G C70A | 5.42e-05 ± 1.4e-05 | – | – | 0.000171 ± 6.6e-05 | –
12 | G35A U56A G63A | < 1e-05 | – | – | – | < 1e-05
13 | G37U A52U | < 1e-05 | < 1e-05 | – | < 1e-05 | –
14 | G35U C58U | < 1e-05 | < 1e-05 | < 1e-05 | – | < 1e-05
15 | G35C A42U U45C G59U | < 1e-05 | – | – | – | –
16 | G38C A39U G60U | < 1e-05 | < 1e-05 | – | – | < 1e-05
17 | G35U U46G | < 1e-05 | < 1e-05 | < 1e-05 | < 1e-05 | < 1e-05
18 | A36G U56G | < 1e-05 | – | – | < 1e-05 | –
19 | G37C U54C C61U C67G | < 1e-05 | – | – | – | < 1e-05
20 | G35C G40A | < 1e-05 | < 1e-05 | < 1e-05 | < 1e-05 | < 1e-05
21 | G35U A39G | < 1e-05 | < 1e-05 | < 1e-05 | < 1e-05 | < 1e-05
22 | G35C G38C C58A | < 1e-05 | < 1e-05 | < 1e-05 | – | –
23 | A36G A48U | < 1e-05 | < 1e-05 | < 1e-05 | < 1e-05 | < 1e-05
24 | A36G A48C | < 1e-05 | – | < 1e-05 | < 1e-05 | < 1e-05

Row | Variant | self-cleavage kobs at 40 uM GlcN6P (glucosamine-6-phosphate [1]) [s⁻¹] | self-cleavage kobs at 2500 uM GlcN6P (glucosamine-6-phosphate [2]) [s⁻¹] | self-cleavage kobs at 160 uM GlcN6P (glucosamine-6-phosphate [3]) [s⁻¹] | self-cleavage kobs at 640 uM GlcN6P (glucosamine-6-phosphate [4]) [s⁻¹] | self-cleavage kobs at 10000 uM GlcN6P (glucosamine-6-phosphate [5]) [s⁻¹]
25 | G35U G63U G66C C67A | < 1e-05 | – | – | – | < 1e-05
26 | G38U C58U | < 1e-05 | < 1e-05 | – | – | < 1e-05
27 | A36G A53G | < 1e-05 | – | < 1e-05 | < 1e-05 | –
28 | G37A C50G C70G | 4.31e-05 ± 2.1e-05 | – | – | – | –
29 | G38U A52G U69G | 0.000147 ± 5.7e-05 | – | – | – | 7.13e-05 ± 1.9e-05
30 | G35A G40C | < 1e-05 | < 1e-05 | < 1e-05 | < 1e-05 | < 1e-05
31 | A36G G43A C58A G62C C68G | < 1e-05 | – | – | – | < 1e-05
32 | G38U A52C | < 1e-05 | – | – | < 1e-05 | < 1e-05
33 | G38U C61U U69C C71G | 6.15e-05 ± 2.4e-05 | – | – | – | 4.2e-05 ± 1.5e-05
34 | G37C U55C | < 1e-05 | – | – | – | 5.46e-05 ± 9.7e-06
35 | G37C A64U | < 1e-05 | < 1e-05 | < 1e-05 | < 1e-05 | < 1e-05
36 | A39C G62U | < 1e-05 | < 1e-05 | – | – | < 1e-05
37 | A36C C58A U65A C68G | 0.000139 ± 4.3e-05 | 0.000116 ± 2.7e-05 | – | – | –
38 | A36C U54C A64U C67G | < 1e-05 | – | – | – | –
39 | A36G G63U | < 1e-05 | < 1e-05 | < 1e-05 | < 1e-05 | < 1e-05
40 | A36G G63A | < 1e-05 | < 1e-05 | < 1e-05 | < 1e-05 | < 1e-05
41 | G35U U69C | < 1e-05 | < 1e-05 | < 1e-05 | – | < 1e-05
42 | G37C G59A | < 1e-05 | – | < 1e-05 | – | < 1e-05
43 | G37U C58U G63A | < 1e-05 | – | – | – | –
44 | A36G G44U U45C G51A G63C U69G C70G | < 1e-05 | – | – | – | < 1e-05
45 | G35A G43U | < 1e-05 | < 1e-05 | < 1e-05 | < 1e-05 | < 1e-05
46 | G38C U47A C70U | < 1e-05 | – | – | – | –
47 | G35A A64G C70G | < 1e-05 | – | – | – | < 1e-05
48 | G35C C50U C70G | < 1e-05 | – | – | – | –

Row | Variant | self-cleavage kobs at 40 uM GlcN6P (glucosamine-6-phosphate [1]) [s⁻¹] | self-cleavage kobs at 2500 uM GlcN6P (glucosamine-6-phosphate [2]) [s⁻¹] | self-cleavage kobs at 160 uM GlcN6P (glucosamine-6-phosphate [3]) [s⁻¹] | self-cleavage kobs at 640 uM GlcN6P (glucosamine-6-phosphate [4]) [s⁻¹] | self-cleavage kobs at 10000 uM GlcN6P (glucosamine-6-phosphate [5]) [s⁻¹]
49 | G38C G40C A64U | < 1e-05 | – | – | – | < 1e-05
50 | G37C U46A | < 1e-05 | – | < 1e-05 | < 1e-05 | < 1e-05
51 | A36C G51A | < 1e-05 | – | – | – | < 1e-05
52 | G35A C50G C61G | 0.000147 ± 3e-05 | – | – | – | 0.000252 ± 4.7e-05
53 | A39C U49C | < 1e-05 | – | < 1e-05 | – | < 1e-05
54 | G38U G44U U49C | < 1e-05 | – | – | – | < 1e-05
55 | G37C A64C C68U | < 1e-05 | < 1e-05 | – | – | < 1e-05
56 | A36G A64G U69G | < 1e-05 | – | – | – | –
57 | A36U U54C | < 1e-05 | – | < 1e-05 | < 1e-05 | –
58 | G38U A48G G51U | < 1e-05 | – | – | – | < 1e-05
59 | G37A C61A | < 1e-05 | – | – | < 1e-05 | < 1e-05
60 | A36U U55G G63A C71A | < 1e-05 | – | – | – | –
61 | G38A A42U C70A | < 1e-05 | < 1e-05 | – | – | < 1e-05
62 | A36C C58U | < 1e-05 | – | – | < 1e-05 | < 1e-05
63 | G37U A48U | < 1e-05 | < 1e-05 | < 1e-05 | – | < 1e-05
64 | A39C A52G G59U U69G | < 1e-05 | – | – | – | –
65 | G35A U47A U57C G66A | < 1e-05 | – | – | – | –
66 | G37C G59C A64G C68A | < 1e-05 | – | < 1e-05 | – | –
67 | A36C A39G G60U | < 1e-05 | < 1e-05 | – | < 1e-05 | –
68 | G35C G63U C71A | < 1e-05 | < 1e-05 | – | – | < 1e-05
69 | A39C G63U | < 1e-05 | – | – | < 1e-05 | < 1e-05
70 | A39C C50G A52C | < 1e-05 | – | – | – | –
71 | G37U A48U C68A | < 1e-05 | – | – | – | < 1e-05
72 | A39C A52U C71U | < 1e-05 | – | – | – | –

Row | Variant | self-cleavage kobs at 40 uM GlcN6P (glucosamine-6-phosphate [1]) [s⁻¹] | self-cleavage kobs at 2500 uM GlcN6P (glucosamine-6-phosphate [2]) [s⁻¹] | self-cleavage kobs at 160 uM GlcN6P (glucosamine-6-phosphate [3]) [s⁻¹] | self-cleavage kobs at 640 uM GlcN6P (glucosamine-6-phosphate [4]) [s⁻¹] | self-cleavage kobs at 10000 uM GlcN6P (glucosamine-6-phosphate [5]) [s⁻¹]
73 | G35C G63A | < 1e-05 | – | < 1e-05 | < 1e-05 | < 1e-05
74 | G35C C61G | < 1e-05 | – | < 1e-05 | < 1e-05 | –
75 | G35U G41U C70U | < 1e-05 | – | – | – | < 1e-05
76 | A36G G62U | < 1e-05 | < 1e-05 | – | < 1e-05 | < 1e-05
77 | G38U A52C C61A | < 1e-05 | – | – | – | –
78 | A36G G51U | < 1e-05 | – | – | < 1e-05 | < 1e-05
79 | G37U A39U C70G | < 1e-05 | – | – | – | –
80 | G35C C61G C68G | 7.74e-05 ± 3e-05 | – | – | – | –
81 | G35U G66C C67U | < 1e-05 | – | – | – | –
82 | G35C U49A | < 1e-05 | < 1e-05 | – | < 1e-05 | –
83 | A36G U55C C67U | < 1e-05 | < 1e-05 | – | < 1e-05 | –
84 | A36G U65G | < 1e-05 | < 1e-05 | < 1e-05 | < 1e-05 | < 1e-05
85 | A36C G41C U54G G66C C68G | < 1e-05 | – | – | – | –
86 | G38C C67U | < 1e-05 | < 1e-05 | – | – | < 1e-05
87 | G35A C68A | < 1e-05 | < 1e-05 | < 1e-05 | < 1e-05 | –
88 | G35U A48C | < 1e-05 | < 1e-05 | – | – | < 1e-05
89 | A36U U69G | 3.66e-05 ± 8.9e-06 | 9.73e-05 ± 2.3e-05 | 0.000214 ± 3.9e-05 | 0.000283 ± 5.8e-05 | 0.000107 ± 4.1e-05
90 | A36C G62A | < 1e-05 | < 1e-05 | < 1e-05 | – | –
91 | A36C G62C | < 1e-05 | – | < 1e-05 | – | < 1e-05
92 | G38U U49A C58A | < 1e-05 | – | – | – | –
93 | G35U C50G | 3.53e-05 ± 1.5e-05 | 0.000141 ± 3.9e-05 | 9.05e-05 ± 2.7e-05 | – | –
94 | G37U G40U C67G | < 1e-05 | < 1e-05 | – | < 1e-05 | –
95 | G37A A42C U47G | < 1e-05 | – | < 1e-05 | < 1e-05 | –
